Where a SMILES comes first, the peptide text is derived from it. Where no end group is shown, it is not given here. [ ]: non-standard residue; d: D form. The star is where a group is joined. Sta = CC(C)C[C@H](N)[C@@H](O)CC(=O)O; Isovaleryl = CC(C)CC(=O)*
Columns and labels:
Gastricsin [1] = biological target: T1, Gastricsin (Homo sapiens, UniProt P20142); assay: Cleavage of peptide substrates by gastricsin (MSP-MS assay); assay type: biochemical; set-up: purchased R&D Systems 6186-AS; conditions: Target Protease Gastricsin; for Relative Cleavage: relative to the most cleaved substrate (1.00)
T1 sequence (P20142 60-388): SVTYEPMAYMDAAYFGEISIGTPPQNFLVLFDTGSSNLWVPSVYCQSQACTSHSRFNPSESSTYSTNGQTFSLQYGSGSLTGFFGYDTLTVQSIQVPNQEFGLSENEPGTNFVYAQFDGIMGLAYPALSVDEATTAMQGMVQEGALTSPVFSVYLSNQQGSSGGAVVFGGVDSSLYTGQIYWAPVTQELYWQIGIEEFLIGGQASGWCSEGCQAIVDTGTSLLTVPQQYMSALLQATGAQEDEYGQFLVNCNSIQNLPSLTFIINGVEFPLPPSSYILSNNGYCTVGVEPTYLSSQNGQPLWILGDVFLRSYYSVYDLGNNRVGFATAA
Procedure: (§1) The MSP-MS assay was performed as previously described (34). Cyst fluid was diluted to 100 μg/mL in assay buffer (either pH 7.5 phosphate buffer or pH 3.5 acetate buffer) and pre-incubated for 10 minutes. For analysis of protease inhibitor sensitivity, 1 mM AEBSF (Sigma, A8456), 2 μM E-64 (Sigma, E3132), 2 μM pepstatin (Sigma, P5318), 2 mM 1,10-phenanthroline (Sigma, 131337), or DMSO were included in pre-incubation. The 228 tetradecapeptide library was split into two pools and diluted in assay buffer to a concentration of 1 μM of each peptide. 75 μL of diluted cyst fluid and peptide pools were then combined and incubated at room temperature. 30 μL aliquots were removed after 15 and 60 minutes, protease activity quenched with 8 M guanidinium hydrochloride, and flash-frozen in liquid N2. For recombinant gastricsin (R&D Systems, 6186-AS), cathepsin D (R&D Systems, 1014-AS), and cathepsin E (R&D Systems, 1294-AS), the MSP-MS assay was performed as described above with slight modifications: 10 nM of recombinant protease in pH 3.5 acetate buffer was used and aliquots were removed after 15, 60, and 240 minutes.
(§2) Prior to peptide cleavage site identification by mass spectrometry, samples were desalted using C18 tips (Rainin). Mass spectrometry analysis was carried out with an LTQ Orbitrap XL mass spectrometer coupled to a 10,000 psi nanoACQUITY Ultra Performance Liquid Chromatography (UPLC) System (Waters) for peptide separation by reverse phase liquid chromatography (RPLC). Peptides were separated over a C18 column (Thermo) and eluted by applying a flow rate of 300 nL/min with a 65-minute linear gradient from 2-30% acetonitrile. Survey scans were recorded over a 325-1500 m/z range and the six most intense precursor ions were fragmented by collision-induced dissociation (CID) for MS/MS.
(§3) Raw mass spectrometry data was processed to generate peak lists using MSConvert. Peak lists were then searched in Protein Prospector v. 5.10.0 (35) against a custom database containing the sequences from the 228 tetradecapeptide library. Searches used a mass accuracy tolerance of 20 ppm for precursor ions and 0.8 Da for fragment ions. Variable modifications included N-terminal pyroglutamate conversion from glutamine or glutamate and oxidation of tryptophan, proline, and tyrosine. Searches were subsequently processed using the MSP-xtractor software (http://www.craiklab.ucsf.edu/extractor.html), which extracts the peptide cleavage site and spectral counts of the corresponding cleavage products. Spectral counts were used for the relative quantification of peptide cleavage products.

Cathepsin E [2] = biological target: T2, Cathepsin E (Homo sapiens, UniProt P14091); assay: Cleavage of peptide substrates by cathepsin E (MSP-MS assay); assay type: biochemical; set-up: purchased R&D Systems 1294-AS; conditions: Target Protease Cathepsin E; for Relative Cleavage: relative to the most cleaved substrate (1.00)
T2 sequence (P14091 54-396): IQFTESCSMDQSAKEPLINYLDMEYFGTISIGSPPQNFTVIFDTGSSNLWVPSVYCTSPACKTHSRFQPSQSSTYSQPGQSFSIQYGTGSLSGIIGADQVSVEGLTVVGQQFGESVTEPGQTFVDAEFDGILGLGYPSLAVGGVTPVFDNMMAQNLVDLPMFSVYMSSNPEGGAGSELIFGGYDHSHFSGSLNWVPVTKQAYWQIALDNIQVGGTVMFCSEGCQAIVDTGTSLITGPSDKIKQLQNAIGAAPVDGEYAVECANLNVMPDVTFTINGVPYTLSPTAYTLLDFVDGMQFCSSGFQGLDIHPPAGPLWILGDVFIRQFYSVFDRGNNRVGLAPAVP
Procedure: as §1, §2, §3

Cathepsin E [3] = biological target: T2, Cathepsin E; assay: Fluorescent protease activity assay with recombinant cathepsin E; assay type: biochemical; set-up: purchased R&D Systems 1294-AS
Procedure: (§4) Synthesis of internally quenched fluorescent peptides was conducted using Fmoc solid-phase peptide synthesis on a Syro II automated synthesizer (Biotage). Briefly, reactors were charged with Wang resin preloaded with Fmoc-Lys(dinitrophenol) (Anaspec, A23856). Coupling reactions were conducted on a 0.0125 mmol scale in 500 μL of DMF with 5 equivalents of Fmoc amino acid (Anaspec), 4.9 equivalents of HCTU (Anaspec), and 20 equivalents of N-methylmorpholine (NMM). Fmoc deprotection was conducted by incubation with 500 μL 40% 4-methlypiperidine in DMF, followed by 500 μL 20% 4-methlypiperidine in DMF. Substrates were capped with a […] Lys-(7-methoxycoumarin-4-acetic acid)-OH (EMD Millipore, 852095) followed by two D-Arg residues to enhance solubility. Peptides were removed from resin by incubating with 500 μL of cleavage solution (95% trifluoroacetic acid, 2.5% water, 2.5% Triisopropylsilane). […]
(§5) All fluorescent protease activity assays were performed in triplicate in black, round-bottom 384 well plates. […] Fluorescent substrate cleavage was monitored with a Biotek Synergy HT plate reader using excitation and emission wavelengths of 328 nm and 393 nm, respectively. Selectivity of the recombinant proteases was assessed by comparing the initial velocity of substrate hydrolysis in relative fluorescent units per second (RFU/sec). […]

Cathepsin E [4] = biological target: T2, Cathepsin E; assay: Cathepsin E fluorescent substrate assay in patient cyst fluid, mucinous vs nonmucinous cysts; set-up: both proteases are released into cyst fluid in their proforms; from tissue; host or cells: human pancreatic cyst fluid; conditions: differentiating mucinous from nonmucinous cysts; 110 cyst fluid samples; cutoff 1.23-fold change in fluorescence
Description: (§6) Pancreatic cyst fluid samples were collected from preconsented patients under institutional review board oversight. All patients included in the study underwent surgical resection of their cystic lesion and have a pathologically confirmed diagnosis. The highest grade of dysplasia observed during pathological evaluation of each cystic lesion is reported. Samples were collected either at the time of surgical resection or during diagnostic endoscopic ultrasound prior to resection of the cystic lesion. Cyst fluid samples were split into 100 μL aliquots and frozen to −80° C. within 60 minutes of collection. Samples underwent at most two freeze-thaw cycles prior to experimental analysis. Total cyst fluid protein concentration was determined by the bicinchoninic acid assay. CEA levels were evaluated for the majority of samples, but were unavailable in 21 cases due to limited cyst fluid volume.
as §5, with “plates. Assays were run for 1 hour in 15 μL of acetate buffer with 0.01% Tween.” for “plates.”

[5] = tested on: protease activity of mucinous cyst fluid sample; assay: MSP-MS analysis of protease inhibitor sensitivity in mucinous cyst fluid; assay type: biochemical, human; conditions: for number of mucinous-specific substrates whose cleavage was inhibited: 1 mM AEBSF, 2 mM 1,10-phenanthroline
Procedure: as §1, §2, §3

Gastricsin [6] = biological target: T1, Gastricsin; assay: Fluorescent protease activity assay with recombinant gastricsin; assay type: biochemical; set-up: purchased R&D Systems 6186-AS
Procedure: as §4, §5

Gastricsin [7] = biological target: T1, Gastricsin; assay: Gastricsin fluorescent substrate assay in patient cyst fluid, mucinous vs nonmucinous cysts; set-up: both proteases are released into cyst fluid in their proforms; from tissue; host or cells: human pancreatic cyst fluid; conditions: differentiating mucinous from nonmucinous cysts; 110 cyst fluid samples; cutoff 1.23-fold change in fluorescence
Description: as §6
as §5, with “plates. Assays were run for 1 hour in 15 μL of acetate buffer with 0.01% Tween.” for “plates.”

[8] = tested on: cathepsin E and gastricsin protease activity in cyst fluid; assay: Pepstatin inhibition of fluorescent substrate cleavage by mucinous cyst fluid; assay type: biochemical, human; conditions: fluid from a mucinous cyst, pre-incubation with 2 μM pepstatin; FIG. 11
Procedure: All fluorescent protease activity assays were performed in triplicate in black, round-bottom 384 well plates. Assays were run for 1 hour in 15 μL of acetate buffer with 0.01% Tween. The pH of the acetate buffer was adjusted to promote activity of either aspartyl protease (pH 3.5 for the cathepsin E substrate and pH 2.0 for the gastricsin substrate). 10 μM of substrate was used for all assays (unless otherwise indicated) and was incubated with either 10 nM of recombinant protease or 50 μg/mL of cyst fluid protein. For kinetic analysis of gastricsin activity, the substrate concentration ranged from 0.1-25 μM. For analysis of inhibitor sensitivity, cyst fluid samples were pre-incubated with 2 μM of pepstatin. Fluorescent substrate cleavage was monitored with a Biotek Synergy HT plate reader using excitation and emission wavelengths of 328 nm and 393 nm, respectively. Selectivity of the recombinant proteases was assessed by comparing the initial velocity of substrate hydrolysis in relative fluorescent units per second (RFU/sec). For cyst fluid samples, the change in endpoint RFU was compared relative to wells that contained substrate, but no cyst fluid.

[9] = single mucinous cyst fluid sample, FIG. 2A
[10] = single mucinous cyst fluid sample, 2 μM pepstatin, FIG. 2A

Compound	Total Cleavage (Gastricsin [1])	Relative Cleavage (Gastricsin [1])	Total Cleavage (Cathepsin E [2])	Relative Cleavage (Cathepsin E [2])	other results
VGKWSYRM [VGKW|SYRM, gastricsin peptide substrate]	22	0.34	–	–	–
PWTWYGVK [PWTW|YGVK, gastricsin peptide substrate]	64	1.00	–	–	–
HMIALYWG [HMIA|LYWG, cathepsin E peptide substrate]	–	–	10	0.40	–
AGFSLPA (also: fluorophore/quencher) [AGFSL|PA]	–	–	–	–	limit-of-detection of cathepsin E (Cathepsin E [3]; fluorescence-based activity assay, FIG. 17): approximately 4 μg/mL; selectivity for cathepsin E over both cathepsin D and gastricsin (Cathepsin E [3]; initial velocity of substrate hydrolysis, 10 nM recombinant protease, 10 μM substrate): more than 100 fold; Sensitivity (Cathepsin E [4]): 70%; Specificity (Cathepsin E [4]): 92%
GLYFRYE [GLY|FRYE, cathepsin E peptide substrate]	–	–	25	1.00	–
IKILMFYW [IKIL|MFYW, cathepsin E peptide substrate]	–	–	17	0.68	–
NMKWTRVL [NMKW|TRVL, gastricsin peptide substrate]	21	0.33	–	–	–
Cl.NCCc1ccc(S(=O)(=O)F)cc1 [AEBSF]	–	–	–	–	number of mucinous-specific substrates whose cleavage was inhibited [5, 9]: 3 substrates
FGIFYLNG [FGIF|YLNG, cathepsin E peptide substrate]	–	–	22	0.88	–
c1cnc2c(c1)ccc1cccnc12 [1,10-phenanthroline]	–	–	–	–	number of mucinous-specific substrates whose cleavage was inhibited [5, 9]: 3 substrates
DEGWALQH (also: fluorophore and quencher) [DEGW|ALQH]	30	0.47	–	–	limit-of-detection of gastricsin (Gastricsin [6]; fluorescence-based activity assay, FIG. 16): approximately 600 ng/mL; selectivity for gastricsin over both cathepsins D and E (Gastricsin [6]; initial velocity of substrate hydrolysis, 10 nM recombinant protease, 10 μM substrate (FIG. 4D)): greater than 120 fold; Sensitivity (Gastricsin [7]): 93%; Specificity (Gastricsin [7]): 100%
CC(C)CC(=O)N[C@H](C(=O)N[C@H](C(=O)N[C@@H](CC(C)C)[C@@H](O)CC(=O)N[C@@H](C)C(=O)N[C@@H](CC(C)C)[C@@H](O)CC(=O)O)C(C)C)C(C)C [pepstatin] (Isovaleryl-VV[Sta]A[Sta]-OH)	–	–	–	–	effect on cleavage of the mucinous-specific substrates ([5]; second mucinous cyst fluid sample, FIG. 8): block cleavage of the majority of the mucinous-specific substrates; number of additional mucinous-specific substrates whose cleavage was partially inhibited [5, 10]: 8 substrates; number of mucinous-specific substrates whose cleavage was fully inhibited [5, 10]: 20 substrates; inhibition of cleavage of gastricsin and cathepsin E fluorescent substrates [8]: fully inhibited

— patent publication US11726091B2, “Compositions and methods of diagnosing pancreatic cancer” (THE REGENTS OF THE UNIVERSITY OF CALIFORNIA, priority 2017, dated 2023)
